As a reminder, the EC50 is the concentration needed to bring the measured effect to its halfway point. Read a low EC50 as higher potency in that assay. As usually defined, the Kd is the concentration at which binding is half-saturated. Lower therefore signals a tighter complex. The koff is the rate constant with which the complex falls apart. High values mean fast dissociation, low ones slow dissociation. What is called kon is the second-order rate constant of association. Lower therefore signals slow association. The IC50 is the concentration that gives 50% inhibition.

The labels stand for the following.
T1: human CXCL13 (human, UniProt O43927 23-109)
T1 construct: also called huCXCL13; rhCXCL13
T1 sequence (looked up): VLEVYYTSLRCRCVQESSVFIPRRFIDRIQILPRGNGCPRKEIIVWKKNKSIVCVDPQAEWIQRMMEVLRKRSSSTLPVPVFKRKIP

B1: 71F4A3-VH1VL1 (Hz71F4) Fab (Fab, V domains shown)
VH: EVQLVESGGGLVQPGGSLRLSCAASGIDFSRYWMSWVRQAPGKGLEWVAEINPDSSTINYAPSLKDRFTISRDNAKNSLYLQMNSLRAEDTAVYYCARQDDYEYYAMDYWGQGTTVTVSS
VL: DIQMTQSPSSLSASVGDRVTITCKASQDVNTGVAWYQQKPGKAPKLLIYSASYRYTGVPSRFSGSGSGTDFTFTISSLQPEDIATYYCQQYYSTPLTFGGGTKLEIK
notes: Humanized Fab, human gamma 1 and kappa constant domains
B2: 71F4A3-VH1VL2 (Fab, V domains shown)
VH: B1 VH
VL: B1 VL with L78V
notes: as for B1
B3: 71F4A3-VH3VL1 (Fab, V domains shown)
VH: B1 VH with E6Q, A49G, L86V
VL: B1 VL
notes: as for B1
B4: 71F4A3-VH2VL1 (Fab, V domains shown)
VH: B1 VH with E6Q
VL: B1 VL
notes: as for B1
B5: 64C10G1-VH1VL1 (Fab, V domains shown)
VH: EVQLVESGGGLVQPGGSLRLSCAASGFTFSSYAMSWVRQAPGKGLEWVATISDGGSDAYYPDNVKGRFTISRDNAKNSLYLQMNSLRAEDTAVYYCARDYYGSGYEDSPMDYWGQGTLVTVSS
VL: DIQMTQSPSSLSASVGDRVTITCKASQDINKYIAWYQQKPGKAPKLLIYYTSTLQPGVPSRFSGSGSGTDFTFTISSLQPEDIATYYCLQYDNLYTFGGGTKLEIK
notes: Humanized Fab, human gamma 1 and kappa constant domains; also called 64C10G1-VH1VL1(Fab)
B6: 64C10G1-VH1VL4 (Fab, V domains shown)
VH: B5 VH
VL: B5 VL with Y49H, V58I, F71Y, I83F
notes: Humanized Fab, human gamma 1 and kappa constant domains; also called 64C10G1-VH1VL4(Fab)
B7: 64C10G1-VH1VL2 (Fab, V domains shown)
VH: B5 VH
VL: B5 VL with Y49H, I83F
notes: Humanized Fab, human gamma 1 and kappa constant domains; also called 64C10G1-VH1VL2(Fab)

Substitutions are numbered along the chain they refer to.

One experiment concerns the target T1, human CXCL13. Description: ELISA binding, Fab. In general terms: ELISA stands for enzyme-linked immunosorbent assay.
With B1, the EC50 amounted to 0.974 nM.

Turning to B2, it took 1.18 nM to reach a half-maximal effect (EC50).

In turn, B3 registered an EC50 of 0.575 nM.

Turning to B4, the EC50 was 0.819 nM.

Consider B5, for which the EC50 amounted to 1.29 nM.

Turning to B6, the EC50 came out at 0.784 nM.

Consider B7, for which the EC50 amounted to 1.23 nM.

The next experiment addresses T1, human CXCL13. Description: SPR Biacore, off-rate ranking of Fabs.
As to B1, the Kd worked out at 0.426 nM, the koff turned out to be 0.00136 s⁻¹ and the kon came out at 3.2e+06 M⁻¹ s⁻¹.

As for B2, binding was put at a Kd of 0.516 nM, the koff was 0.00147 s⁻¹ and the kon came out at 2.85e+06 M⁻¹ s⁻¹.

Take B3: the dissociation constant Kd amounted to 0.462 nM, the koff came out at 0.000987 s⁻¹ and the kon came out at 2.14e+06 M⁻¹ s⁻¹.

Consider B4, for which the dissociation constant (Kd) is 0.554 nM, the koff was determined as 0.00108 s⁻¹ and the kon came out at 1.95e+06 M⁻¹ s⁻¹.

The molecule B5 showed a Kd of 5.89 nM, a koff of 0.0255 s⁻¹ and a kon of 4.33e+06 M⁻¹ s⁻¹.

For the molecule B6, the Kd was found to be 3.68 nM, the koff is 0.00713 s⁻¹ and the kon worked out at 1.94e+06 M⁻¹ s⁻¹.

B7 returned a Kd of 1.92 nM, a koff of 0.00515 s⁻¹ and a kon of 2.69e+06 M⁻¹ s⁻¹.

The target of another experiment is T1, human CXCL13. Nature of the experiment: SPR Biacore 8K, Fab over immobilised CXCL13. How it is done:
Among all humanized Fab samples, 71F4A3-VH2VL1, 71F4A3-VH1VL1 (Hz71F4), 71F4A3-VH1VL2, 71F4A3-VH3VL1, 411A11E9-VH1VL4, 411A11E9-VH3VL4, 411A11E9-VH2VL4, 411A11E9-VH3VL2, 411A11E9-VH1VL2, 21H12D9-VH1VL1, 21H12D9-VH2VL2, 21H12D9-VH3VL3, 21H12D9-VH1VL2, 64C10G1-VH1VL3, 64C10G1-VH1VL4, 64C10G1-VH1VL1, 64C10G1-VH1VL2 were selected to test affinity by Biacore 8K. 10 mM HEPES, 150 mM NaCl, 3 mM EDTA, 0.05% Tween-20, pH 7.4 served as running buffer and 10 mM glycine-HCl, pH2.0 served as regeneration buffer. CXCL13 protein were immobilized on Sensor Chip CM5 using amine coupling method (immobilization level ˜250RU). The serial concentrations of Fab (0-20 nM) were injected over immobilized CXCL13 at the flow rate of 30 μl/min. The dissociation phases were 600s.
Background: In SPR one partner is held on a chip, and binding of the other changes the refractive index at the surface.
In the case of B1, the Kd is 0.619 nM, the koff is 0.00125 s⁻¹ and the kon amounted to 2.02e+06 M⁻¹ s⁻¹.

For B2, the Kd stood at 0.628 nM, the koff was 0.00116 s⁻¹ and the kon was found to be 1.84e+06 M⁻¹ s⁻¹.

The molecule B3 registered a Kd of 0.934 nM, a koff of 0.00153 s⁻¹ and a kon of 1.64e+06 M⁻¹ s⁻¹.

For B4, binding was put at a Kd of 0.853 nM, the koff was 0.00145 s⁻¹ and the kon stood at 1.7e+06 M⁻¹ s⁻¹.

B5 yielded a Kd of 5.89 nM, a koff of 0.0255 s⁻¹ and a kon of 4.33e+06 M⁻¹ s⁻¹.

Regarding B6, binding was put at a Kd of 3.68 nM, the koff came out at 0.00713 s⁻¹ and the kon is 1.94e+06 M⁻¹ s⁻¹.

In turn, B7 registered a Kd of 1.92 nM, an off-rate (koff) of 0.00515 s⁻¹ and a kon of 2.69e+06 M⁻¹ s⁻¹.

Another experiment has as its target T1, human CXCL13. Nature of the experiment: cell-based blocking assay, CXCL13 to CXCR5 cells. The procedure, abridged: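 CHO-K1 cells expressing CXCR5 were plated at 5×10⁴/well overnight at 37° C, fixed with 2% PFA and blocked with 1% BSA in PBST. Serially diluted humanized Fabs were mixed with an equal volume of human CXCL13 at 0.3 μg/ml and pre-incubated for 30 min at room temperature, and 100 μl of each mix was added to the cells for 30 min. After three PBST washes, bound CXCL13 was captured with 3 μg/ml of a human anti-CXCL13 antibody, detected with anti-human Fc-HRP and read at 450 nm. IC50 was derived from the titration.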
Molecule B1 displayed an IC50 of 11.2 nM.

For the molecule B2, the IC50 amounted to 10.7 nM.

Turning to B3, the IC50 stood at 11.3 nM.

The molecule B4 had an IC50 of 10.5 nM.

As for B5, 7.79 nM corresponded to half-maximal inhibition (IC50).

The molecule B6 had an IC50 of 6.88 nM.

As to B7, inhibition was half-maximal at 7.02 nM (IC50).
